Data taken from the supplement of paper PMC9732359.
± gives the uncertainty stated by the source.

assay: protein stability index of a GFP-peptide fusion (yeast GPS) (PSI 1-4); higher = more stable; sorted into four equal gates, so the index is relative within each strain; details: san1∆
In short: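 The protein stability index combines read frequencies across sorting gates, each weighted by its gate number and then summed. To obtain those frequencies, a pooled yeast library of GFP fusions to tiled 17-residue yeast protein peptides, on a plasmid also expressing Cherry, was grown to mid-log phase in leucine-free medium. The cells were sorted into four equal gates by GFP/Cherry ratio before plasmid amplification by PCR and Illumina sequencing.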

| Sequence | protein stability index |
| --- | --- |
| PEQGEEPMKQLNATKIS [YAR002W/NUP60] | 2.5 ± 0.14 |

same assay, conditions: ubr1∆

| Sequence | protein stability index |
| --- | --- |
| NLHALSMSLQSKNLGEI [SWI1] | 2.66 ± 0.068 |
| NLIIFLYKFNGWSLVGR [YML103C/NUP188] | 2.68 ± 0.11 |
| NLKDLNNVKQMVMAGSK [RPO21] | 1.92 ± 0.077 |
| NLKEYNKFMSIFLKRKD [SRB8] | 1.88 ± 0.096 |
| NLLPKKSAKATKASQEL [HTA1] | 3.03 ± 0.088 |
| NLPKDKSGIPEFTPADP [SSN2] | 3.47 ± 0.056 |
| NLRTQVTQQKRSLDENR [SMC1] | 3.07 ± 0.086 |
| NLSQENDNEGKHISASI [YAR002W/NUP60] | 3.12 ± 0.044 |
| NLTIHFGGEKGKRIREN [FAS1] | 3.31 ± 0.075 |
| NLWKNIFLSKENSAVAA [COR1] | 1.61 ± 0.063 |
| NMEKEKDRIIDERTKEF [YIL149C/MLP2] | 3.16 ± 0.058 |
| NMLICAPTGSGKTNIAL [BRR2] | 2.98 ± 0.053 |
| NMYTSTQKTELEIDNKD [SIR4] | 3.06 ± 0.065 |
| NNAHSSDLGTVVFDSNE [YMR153W/NUP53] | 1.85 ± 0.082 |
| NNDVFTIGPYRARKDRM [SSN3] | 3.32 ± 0.13 |
| NNFIVERVQSDENKDDE [SRP68] | 3.04 ± 0.098 |
| NNGLPMKNKAETTTEED [ITC1] | 3.03 ± 0.12 |
| NNGSSDKSLDSSNASFN [MED1] | 2.98 ± 0.12 |
| NNIFKEFTSKIGFTIKE [SMC1] | 2.7 ± 0.046 |
| NNIIRIQQLISQFLKRV [SNF11] | 2.3 ± 0.045 |
| NNKITQLIAKNVANVSG [SIR3] | 2.35 ± 0.054 |
| NNNEDNENNNNSSEKNN [MED2] | 3.15 ± 0.048 |
| NNNGNPGTTSTGNNNNI [GAL11] | 3.23 ± 0.07 |
| NNNNTIDESMPDTAIDS [GRR1] | 3 ± 0.044 |
| NNNQKIDDNYIVVVIEI [SRB8] | 3.11 ± 0.1 |
| NNPANNTNNNNSTGHSS [SWI1] | 2.12 ± 0.036 |
| NNSTGIANDNVITPHFI [SWI1] | 2.9 ± 0.033 |

| Sequence | protein stability index |
| --- | --- |
| NNTLSRYADAGNIDTKN [RRP43] | 3.5 ± 0.054 |
| NNTNTGASGVDDFQNFF [SWI1] | 3.31 ± 0.045 |
| NNVTSNPSEFTPNMVNS [SSN2] | 3.1 ± 0.05 |
| NNVYFAAGALFVSSGFD [RPN14] | 2.21 ± 0.17 |
| NPASATDNMSGRGLWNP [YJL039C/NUP192] | 3.16 ± 0.075 |
| NPDDDYGFKQEIFDVTS [FAS1] | 3.31 ± 0.055 |
| NPHDGVNSIALFVGTDR [RPN14] | 2.99 ± 0.11 |
| NPIDPFNIIREFRSAAG [YDL116W/NUP84] | 3.09 ± 0.063 |
| NPMVPSSVNEDTFLPPP [PRP8] | 3.1 ± 0.043 |
| NPSQGVSNSGAQDEEIH [UBP6] | 2.11 ± 0.059 |
| NPTEFDWPTYVDQNPLT [SRB8] | 2.19 ± 0.046 |
| NPVALEQKLVDLLKFEN [BRR2] | 2.47 ± 0.12 |
| NQKLALVIKSGKYTLGY [RPL30] | 2.93 ± 0.047 |
| NQLSQTNKLLFKRVSQT [NUT1] | 1.38 ± 0.035 |
| NQLVAKLLLLRINSTDE [SRB8] | 1.14 ± 0.055 |
| NQMKVAPIPKQLLQRIP [GAL11] | 2.3 ± 0.043 |
| NQTRKAHRNGIKKPKTY [RPL29] | 2.99 ± 0.063 |
| NQYKLVFYQVTPEDADE [RPL22B] | 2.14 ± 0.085 |
| NRHNLLNDVVSFLFSAI [SWI1] | 2.4 ± 0.043 |
| NRLSRIHLYMLTFHTLK [YLR018C/POM34] | 1.44 ± 0.047 |
| NRSVVYFKLDLTSDLVY [RRI2] | 1.39 ± 0.078 |
| NSAARNIQHLLYGKRFF [PRE7] | 2.45 ± 0.076 |
| NSANGSSLNGTNAKIPQ [SSN3] | 2.56 ± 0.057 |
| NSAVNNAISNTQDDFTT [SRP54] | 3.31 ± 0.045 |
| NSDHAKFTIEPGVLPVG [SNF2] | 1.83 ± 0.046 |
| NSKPVELKPVSLDNKTL [YJL041W/NSP1] | 2.58 ± 0.064 |
| NSLAVRGKDCTVVISQK [SCL1] | 2.72 ± 0.045 |

| Sequence | protein stability index |
| --- | --- |
| NSNKQAVAILADDEKSD [BRR2] | 2.88 ± 0.044 |
| NSSEKNNNNNNNNNNNN [MED2] | 3.12 ± 0.053 |
| NSSEQESDYEPNNETSV [SIR3] | 2.84 ± 0.092 |
| NSTASSSNISPEQVYSL [ARP7] | 2.88 ± 0.039 |
| NTENVESVPTPANAEPQ [ITC1] | 3.22 ± 0.12 |
| NTEQGDSDELGGESMEG [SNM1] | 3.39 ± 0.085 |
| NTFTWNHSLQHQNESSA [RPN4] | 3.17 ± 0.037 |
| NTGGESVVKKEDNKYAI [RGR1] | 3.4 ± 0.085 |
| NTGIVSSTTGMSYVVRI [RPT3] | 3.25 ± 0.09 |
| NTLRMKHGTYDKLDDDG [RPB2] | 2.89 ± 0.045 |
| NTMSAWVNMLLISSSGP [FAS2] | 1.52 ± 0.043 |
| NTNNNNNPANNTNNNNS [SWI1] | 3.435 ± 0.026 |
| NTNNNNSTGHSSNTNNN [SWI1] | 1.93 ± 0.05 |
| NTSLISLFTYFREAIVA [PRP8] | 1.44 ± 0.049 |
| NTSSKRQKKKPTSAQKS [IRR1] | 2.87 ± 0.07 |
| NTTTRVIPQVEVGNRKH [SNF5] | 2.62 ± 0.094 |
| NVANVSGSTEKAFKICE [SIR3] | 3.11 ± 0.058 |
| NVAVDIINFGEIEQNTE [RPN10] | 3.14 ± 0.066 |
| NVDNQTSDLVKSLGLKL [RPS17A] | 3.06 ± 0.075 |
| NVFARLSRLLSLWEVFQ [RPC82] | 2.38 ± 0.067 |
| NVFGQDNEDSDNLFGET [SWI3] | 3.5 ± 0.094 |
| NVGELIEKNVMESIGSD [RRP4] | 2.39 ± 0.065 |
| NVIDTQRKNGVTNSPLF [ECM29] | 3.12 ± 0.11 |
| NVIRSLEQEYRLILLLN [RMP1] | 1.35 ± 0.038 |
| NVKFLRIFISNVSENQP [SNF12] | 1.95 ± 0.069 |
| NVKNDVSFNDSQSMVTN [YIL149C/MLP2] | 3.3 ± 0.04 |
| NVKYRAVVFKPFKGEVV [RPB7] | 2.86 ± 0.075 |

| Sequence | protein stability index |
| --- | --- |
| NVLCVNIKSNDFSIRKT [ECM29] | 2.6 ± 0.071 |
| NVLNQINQIFSPEEQRS [GAL11] | 2.81 ± 0.038 |
| NVMTPREQYETQVALNE [UBP6] | 3.05 ± 0.091 |
| NVNNRFDNFLTEEELQA [BRN1] | 2.63 ± 0.054 |
| NVQTQYREAPVIYRGPE [RET1] | 3.14 ± 0.051 |
| NVSLIKIEGVATPQDAQ [RPL33A] | 2.37 ± 0.059 |
| NVTGGKAANFIQNQSPQ [SWI1] | 2.99 ± 0.047 |
| NVTKSSVGVIINKMVGN [RPL21A] | 2.91 ± 0.13 |
| NVTQNEQQWITRAQYLA [SRP68] | 1.28 ± 0.064 |
| NWRSFNAKIIDAEVAQF [SRP68] | 2.43 ± 0.098 |
| NYELEKIADNISKDENE [YDL116W/NUP84] | 3.14 ± 0.055 |
| NYTGWKAISVGANTSAA [PRE9] | 1.17 ± 0.062 |
| PAAESKIFTPNLLQISA [SNF5] | 1.55 ± 0.099 |
| PAEHPFISAARYKPKSH [RPC37] | 3.13 ± 0.066 |
| PANNHQLGLQTVIRGNS [SMX2] | 2.85 ± 0.053 |
| PASDDILDNINHNGSAL [ITC1] | 3.29 ± 0.078 |
| PDENHDNTSHDEQDDDN [BRN1] | 3.11 ± 0.1 |
| PDENKTRVRLPSGAKKV [RPL2A] | 3.08 ± 0.05 |
| PDGLGEVGMKVQSGQIY [RET1] | 3.21 ± 0.25 |
| PDIVGHEFTLSFTYELK [BRR2] | 2.21 ± 0.033 |
| PDLPALEASYSKSYTPR [SMC4] | 2.6 ± 0.071 |
| PEENATEGPSDKKLNLN [SNF12] | 3.29 ± 0.1 |
| PELFESLGIAQPKGVIL [RPT6] | 2.54 ± 0.061 |
| PEQGEEPMKQLNATKIS [YAR002W/NUP60] | 2.48 ± 0.11 |
